Reference: US20250043022A1 (JIANGSU HENGRUI PHARMACEUTICALS, published 2025)

Tests used:
hIL5 = hIL5 (human, UniProt P05113 20-134); experiment: ELISA
hTSLP = hTSLP (human, UniProt Q969D9 29-159); experiment: ELISA

B1: HJ-3 (bispecific antibody)
chain 1: not shown
chain 2: DIQMTQSPSSVSASVGDRVTITCRASQDIANYLSWYQQKPGKSPKLLIYGTSNLEVGVPSRFSGSRSGTDFTLTISSLQPEDFATYYCLQDKEFPRTFGGGTKVEIKGGGGSSGAPRFLTRPLAFVVSVGKDATLSSQIVGNPTPQVSWEKDKQPVTAGARFRLAQDGDLYRLKILDLQLSDSGQYVSRARNAIGEAFACLGLQVDAEA
chain 3: EVQLVQSGAEVKKPGSSVKVSCKASGYTFSNYLIEWVRQAPGQGLEWIGVIDPGVGDTNYNENFKGRATLTADKSTSTAYIELSSLRSEDTAVYYCAREDNTGTAFDYWGQGTTVTVSSASTKGPSVFPLAPSSKSTSGGTAALGCLVKDYFPEPVTVSWNSGALTSGVHTFPAVLQSSGLYSLSSVVTVPSSSLGTQTYICNVNHKPSNTKVDKKVEPKSCDKTHTCPPCPAPEAAGGPSVFLFPPKPKDTLMISRTPEVTCVVVDVSHEDPEVKFNWYVDGVEVHNAKTKPREEQYNSTYRVVSVLTVLHQDWLNGKEYKCKVSNKALPAPIEKTISKAKGQPREPQVCTLPPSREEMTKNQVSLSCAVKGFYPSDIAVEWESNGQPENNYKTTPPVLDSDGSFFLVSKLTVDKSRWQQGNVFSCSVMHEALHNHYTQKSLSLSPGKDYKDDDDK
chain 4: SIVMTQTPLSLSVTPGQPASISCKASQSVSSDVTWYLQKPGQSPQLLIYYVSEHYTGVPDRFSGSGYGTDFTLKISRVEAEDVGVYYCQQHHRFPLTFGQGTKLEIKRTVAAPSVFIFPPSDEQLKSGTASVVCLLNNFYPREAKVQWKVDNALQSGNSQESVTEQDSKDSTYSLSSTLTLSKADYEKHKVYACEVTHQGLSSPVTKSFNRGEC
EC50 (hIL5): 17.4 nM
EC50 (hTSLP): 3.23 nM

B2: HJ-7 (bispecific antibody)
chain 1: not shown
chain 2: DIQMTQSPSSVSASVGDRVTITCRASQDIANYLSWYQQKPGKSPKLLIYGTSNLEVGVPSRFSGSRSGTDFTLTISSLQPEDFATYYCLQDKEFPRTFGGGTKVEIKGGGGSSGAPRFLTRPKASVVSVGKDATLSCQIVGNPFPQVSWEKDKQPVTAGVRFRLAQDGDLYRLKILDLQLSDSGQYVCRARNAHGEAFACLGLQVDAEA
chain 3: EVQLVQSGAEVKKPGSSVKVSCKASGYTFSNYLIEWVRQAPGQGLEWIGVIDPGVGDTNYNENFKGRATLTADKSTSTAYIELSSLRSEDTAVYYCAREDNTGTAFDYWGQGTTVTVSSASTKGPSVFPLAPSSKSTSGGTAALGCLVKDYFPEPVTVSWNSGALTSGVHTFPAVLQSSGLYSLSSVVTVPSSSLGTQTYICNVNHKPSNTKVDKKVEPKSCDKTHTCPPCPAPEAAGGPSVFLFPPKPKDTLMISRTPEVTCVVVDVSHEDPEVKFNWYVDGVEVHNAKTKPREEQYNSTYRVVSVLTVLHQDWLNGKEYKCKVSNKALPAPIEKTISKAKGQPREPQVCTLPPSREEMTKNQVSLSCAVKGFYPSDIAVEWESNGQPENNYKTTPPVLDSDGSFFLVSKLTVDKSRWQQGNVFSCSVMHEALHNHYTQKSLSLSPGK
chain 4: SIVMTQTPLSLSVTPGQPASISCKASQSVSSDVTWYLQKPGQSPQLLIYYVSEHYTGVPDRFSGSGYGTDFTLKISRVEAEDVGVYYCQQHHRFPLTFGQGTKLEIKRTVAAPSVFIFPPSDEQLKSGTASVVCLLNNFYPREAKVQWKVDNALQSGNSQESVTEQDSKDSTYSLSSTLTLSKADYEKHKVYACEVTHQGLSSPVTKSFNRGEC
EC50 (hIL5): 17.7 nM
EC50 (hTSLP): 2.18 nM

B3: HJ-5 (bispecific antibody)
chain 1: not shown
chain 2: DIQMTQSPSSVSASVGDRVTITCRASQDIANYLSWYQQKPGKSPKLLIYGTSNLEVGVPSRFSGSRSGTDFTLTISSLQPEDFATYYCLQDKEFPRTFGGGTKVEIKGGGGSSGAPRFLTRPKASVVSVGKDATLSSQIVGNPFPQVSWEKDKQPVTAGVRFRLAQDGDLYRLKILDLQLSDSGQYVSRARNAHGEAFACLGLQVDAEA
chain 3: EVQLVQSGAEVKKPGSSVKVSCKASGYTFSNYLIEWVRQAPGQGLEWIGVIDPGVGDTNYNENFKGRATLTADKSTSTAYIELSSLRSEDTAVYYCAREDNTGTAFDYWGQGTTVTVSSASTKGPSVFPLAPSSKSTSGGTAALGCLVKDYFPEPVTVSWNSGALTSGVHTFPAVLQSSGLYSLSSVVTVPSSSLGTQTYICNVNHKPSNTKVDKKVEPKSCDKTHTCPPCPAPEAAGGPSVFLFPPKPKDTLMISRTPEVTCVVVDVSHEDPEVKFNWYVDGVEVHNAKTKPREEQYNSTYRVVSVLTVLHQDWLNGKEYKCKVSNKALPAPIEKTISKAKGQPREPQVCTLPPSREEMTKNQVSLSCAVKGFYPSDIAVEWESNGQPENNYKTTPPVLDSDGSFFLVSKLTVDKSRWQQGNVFSCSVMHEALHNHYTQKSLSLSPGK
chain 4: SIVMTQTPLSLSVTPGQPASISCKASQSVSSDVTWYLQKPGQSPQLLIYYVSEHYTGVPDRFSGSGYGTDFTLKISRVEAEDVGVYYCQQHHRFPLTFGQGTKLEIKRTVAAPSVFIFPPSDEQLKSGTASVVCLLNNFYPREAKVQWKVDNALQSGNSQESVTEQDSKDSTYSLSSTLTLSKADYEKHKVYACEVTHQGLSSPVTKSFNRGEC
EC50 (hIL5): 16 nM
EC50 (hTSLP): 2.64 nM

B4: HJ-6 (bispecific antibody)
chain 1: not shown
chain 2: DIQMTQSPSSVSASVGDRVTITCRASQDIANYLSWYQQKPGKSPKLLIYGTSNLEVGVPSRFSGSRSGTDFTLTISSLQPEDFATYYCLQDKEFPRTFGGGTKVEIKGGGGSSGAPRFLTCPKASVVSVGKDATLSSQIVGNPFPQVSWEKDKQPVTAGVRFRLAQDGDLYRLKILDLQLSDSGQYVSRARNAHGEAFACLGLQVDAEA
chain 3: EVQLVQSGAEVKKPGSSVKVSCKASGYTFSNYLIEWVRQAPGQGLEWIGVIDPGVGDTNYNENFKGRATLTADKSTSTAYIELSSLRSEDTAVYYCAREDNTGTAFDYWGQGTTVTVSSASTKGPSVFPLAPSSKSTSGGTAALGCLVKDYFPEPVTVSWNSGALTSGVHTFPAVLQSSGLYSLSSVVTVPSSSLGTQTYICNVNHKPSNTKVDKKVEPKSCDKTHTCPPCPAPEAAGGPSVFLFPPKPKDTLMISRTPEVTCVVVDVSHEDPEVKFNWYVDGVEVHNAKTKPREEQYNSTYRVVSVLTVLHQDWLNGKEYKCKVSNKALPAPIEKTISKAKGQPREPQVCTLPPSREEMTKNQVSLSCAVKGFYPSDIAVEWESNGQPENNYKTTPPVLDSDGSFFLVSKLTVDKSRWQQGNVFSCSVMHEALHNHYTQKSLSLSPGK
chain 4: SIVMTQTPLSLSVTPGQPASISCKASQSVSSDVTWYLQKPGQSPQLLIYYVSEHYTGVPDRFSGSGYGTDFTLKISRVEAEDVGVYYCQQHHRFPLTFGQGTKLEIKRTVAAPSVFIFPPSDEQLKSGTASVVCLLNNFYPREAKVQWKVDNALQSGNSQESVTEQDSKDSTYSLSSTLTLSKADYEKHKVYACEVTHQGLSSPVTKSFNRGEC
EC50 (hIL5): 37 nM
EC50 (hTSLP): 2.88 nM

B5: HJ-8 (bispecific antibody)
chain 1: not shown
chain 2: DIQMTQSPSSVSASVGDRVTITCRASQDIANYLSWYQQKPGKSPKLLIYGTSNLEVGVPSRFSGSRSGTDFTLTISSLQPEDFATYYCLQDKEFPRTFGGGTKVEIKRTVASSGAPRFLTRPKASVVSVGKDATLSSQIVGNPFPQVSWEKDKQPVTAGVRFRLAQDGDLYRLKILDLQLSDSGQYVSRARNAHGEAFACLGLQVDAEA
chain 3: EVQLVQSGAEVKKPGSSVKVSCKASGYTFSNYLIEWVRQAPGQGLEWIGVIDPGVGDTNYNENFKGRATLTADKSTSTAYIELSSLRSEDTAVYYCAREDNTGTAFDYWGQGTTVTVSSASTKGPSVFPLAPSSKSTSGGTAALGCLVKDYFPEPVTVSWNSGALTSGVHTFPAVLQSSGLYSLSSVVTVPSSSLGTQTYICNVNHKPSNTKVDKKVEPKSCDKTHTCPPCPAPEAAGGPSVFLFPPKPKDTLMISRTPEVTCVVVDVSHEDPEVKFNWYVDGVEVHNAKTKPREEQYNSTYRVVSVLTVLHQDWLNGKEYKCKVSNKALPAPIEKTISKAKGQPREPQVCTLPPSREEMTKNQVSLSCAVKGFYPSDIAVEWESNGQPENNYKTTPPVLDSDGSFFLVSKLTVDKSRWQQGNVFSCSVMHEALHNHYTQKSLSLSPGK
chain 4: SIVMTQTPLSLSVTPGQPASISCKASQSVSSDVTWYLQKPGQSPQLLIYYVSEHYTGVPDRFSGSGYGTDFTLKISRVEAEDVGVYYCQQHHRFPLTFGQGTKLEIKRTVAAPSVFIFPPSDEQLKSGTASVVCLLNNFYPREAKVQWKVDNALQSGNSQESVTEQDSKDSTYSLSSTLTLSKADYEKHKVYACEVTHQGLSSPVTKSFNRGEC
EC50 (hIL5): 18.7 nM
EC50 (hTSLP): 3.33 nM
